Experimental data published in article PMC10784468 (Nature Communications, 2024).
Read-outs that look alike come from different tables or passages of the source. Positions of bridges follow the written chain, without caps; N, C: chain ends. Residues, ends and D or L forms follow the SMILES beside them. *: point of attachment. X1 = O=C(O)c1ccc(-c2c3nc(c(-c4ccc(C(=O)O)cc4)c4ccc([nH]4)c(-c4ccc(C(=O)*)cc4)c4nc(c(-c5ccc(C(=O)O)cc5)c5ccc2[nH]5)C=C4)C=C3)cc1; X2 = O=C(O)C/C(=C/C(=O)*)C(=O)O

Key:
[1] = •OH by TPA fluorescence assay, turnover frequency; details: TPA fluorescence 425 nm, H2O2 concentration-dependent
Description: The generation of •OH was determined by the Magnettech MS-5000 EPR spectrometer. Typically, peptide-porphyrin conjugates (40 μM) were exposed to H2O2 (200 μM) for 3 min in the presence of 5,5-dimethyl-1-pyrroline-N-oxide (DMPO, 100 μM). The •OH signal was immediately detected by the EPR spectrometer. The amount of •OH was measured by using TPA as an indicator that following the increasement of HTPA fluorescence in the conjugate solution. Briefly, TPA (50 μL, 2 mM) and fresh conjugate solution (50 mM) were mixed with 1 ml H2O, and then the solution was exposed to various concentration of H2O2. The fluorescence at 425 nm (λex = 310 nm) was recorded at 5 min to determine the concentration of •OH, which can further be applied for calculating the TOF of peptide-porphyrin conjugates.
Supplementary Fig. 21. Terephthalic acid (TPA) reacts with hydroxyl radical in solution to produce stable and strong fluorescent substances (Ortho -hydroxyterephthalic acid, HTPA). The reaction is used to quantitatively analyze •OH produced by Gi -F under the H2O2 treatment (a). Plot showing the linear relationship of relative fluorescence intensity with H 2O2 concentration (b). The fluorescence of different concentration of HTPA at 425 […]
(1 picture or pasted object on this page, not shown here)

[2] = Cy-labeled
Description: Firstly, A density of 5 × 10^6 EJ cell resuspended in Matrigel were subcutaneously injected into the right hind of mice to construct EJ xenograft model. When the tumor volume reached about 200–400 mm^3, the mice were administrated with Cy labeled Gi-F ([…]), Cy labeled Gi-F-SA ([…]) and Cy labeled Gi-F-CAA ([…]) by intravenous injection for in vivo fluorescence imaging at different timepoints (10 min, 20 min, 40 min, 1 h, 2 h, 4 h, 8 h, 12 h and 24 h) with in vivo imaging system (IVIS). Meanwhile, the EJ xenograft mice were sacrificed for collecting major organs and tumors to evaluate the biodistribution of Gi-F-CAA.

EJ cells [3] = assay: Cellular imaging (uptake) by CLSM; type: cell-based; details: Cy7-labeled, 40 μM, 2 h
Description: Initially, EJ cells (5 × 10^5) were cultured in confocal dish with a CO2 incubator overnight at 37 °C. Subsequently, the EJ cells were incubated with Cy labeled Gi-F-CAA (40 μM, pH = 7.4) and Cy labeled Gi-F-CAA (40 μM, pH = 6.5) for 2 h followed by washing with PBS for three times.

EJ cells [4] = assay: Intracellular ROS detection (DCFH-DA); type: cell-based; details: pH 6.5, 40 μM, 8 h
Description: Initially, EJ cells (5 × 10^5) were cultured in confocal dish with a CO2 incubator overnight at 37 °C. […] Afterwards, EJ cells were washed with PBS for 3 times and replaced with culture mediums.

EJ tumor tissues = assay: Tumor iron content detection (Prussian blue); type: in vivo, BALB/c nude mice; details: 8 mg/kg i.v.
Description: EJ tumor tissues were collected under euthanasia at the end of treatment and washed with PBS for 3 times. Afterwards, the DAB-enhanced Prussian blue iron staining was performed with Wuhan Servicebio Technology Co., Ltd.

[5] = ex vivo, i.v., EJ xenograft mice
[6] = ex vivo, EJ xenograft mice, i.v. 0.5 mg/kg, mice 1
[7] = ex vivo, EJ xenograft mice, i.v. 0.5 mg/kg, mice 2
[8] = ex vivo, EJ xenograft mice, i.v. 0.5 mg/kg, mice 3
[9] = ex vivo, EJ xenograft mice, i.v. 1 mg/kg, mice 1
[10] = ex vivo, EJ xenograft mice, i.v. 1 mg/kg, mice 2
[11] = ex vivo, EJ xenograft mice, i.v. 1 mg/kg, mice 3
[12] = ex vivo, EJ xenograft mice, i.v. 2 mg/kg, mice 1
[13] = ex vivo, EJ xenograft mice, i.v. 2 mg/kg, mice 2
[14] = ex vivo, EJ xenograft mice, i.v. 2 mg/kg, mice 3
[15] = ex vivo, EJ xenograft mice, i.v. 4 mg/kg, mice 1
[16] = ex vivo, EJ xenograft mice, i.v. 4 mg/kg, mice 2
[17] = ex vivo, EJ xenograft mice, i.v. 4 mg/kg, mice 3
[18] = ex vivo, EJ xenograft mice, i.v. 8 mg/kg, mice 1
[19] = ex vivo, EJ xenograft mice, i.v. 8 mg/kg, mice 2
[20] = ex vivo, EJ xenograft mice, i.v. 8 mg/kg, mice 3

FeTCPP-LKLKLKGACNWLPLYPCPV (disulfide) [Gi-F]
turnover frequency (TOF) [1]: 0.022 s⁻¹

CC(C)C[C@H](NC(=O)c1ccc(-c2c3nc(c(-c4ccc(C(=O)O)cc4)c4ccc([nH]4)c(-c4ccc(C(=O)O)cc4)c4nc(c(-c5ccc(C(=O)O)cc5)c5ccc2[nH]5)C=C4)C=C3)cc1)C(=O)N[C@@H](CCCCNC(=O)/C=C(/CC(=O)O)C(=O)O)C(=O)N[C@@H](CC(C)C)C(=O)N[C@@H](CCCCN)C(=O)N[C@@H](CC(C)C)C(=O)N[C@@H](CCCCNC(=O)/C=C(/CC(=O)O)C(=O)O)C(=O)NCC(=O)N[C@@H](C)C(=O)N[C@H]1CSSC[C@@H](C(=O)N2CCC[C@H]2C(=O)N[C@H](C(=O)O)C(C)C)NC(=O)[C@@H]2CCCN2C(=O)[C@H](Cc2ccc(O)cc2)NC(=O)[C@H](CC(C)C)NC(=O)[C@@H]2CCCN2C(=O)[C@H](CC(C)C)NC(=O)[C@H](Cc2c[nH]c3ccccc23)NC(=O)[C@H](CC(N)=O)NC1=O [Gi-F-CAA] (X1-LK(X2)LKLK(X2)GACNWLPLYPCPV-OH; disulfide 9-17; C-terminus assumed)
ex vivo fluorescence signal at the tumor ([2]; 8 mg/kg i.v., versus Gi-F and Gi-F-SA groups): strong fluorescence signal
fluorescence intensity at tumor relative to kidney [2, 5]: ~ 2.4 fold
fluorescence intensity at tumor relative to liver [2, 5]: ~ 1.9 fold
kidney Average FI [2, 6]: 1.89E+07 x10^8 p/cm2/s
liver Average FI [2, 6]: 2.16E+07 x10^8 p/cm2/s
tumor Average FI [2, 6]: 1.51E+07 x10^8 p/cm2/s
kidney Average FI [2, 7]: 1.50E+07 x10^8 p/cm2/s
liver Average FI [2, 7]: 1.85E+07 x10^8 p/cm2/s
tumor Average FI [2, 7]: 1.10E+07 x10^8 p/cm2/s
kidney Average FI [2, 8]: 1.59E+07 x10^8 p/cm2/s
liver Average FI [2, 8]: 1.52E+07 x10^8 p/cm2/s
tumor Average FI [2, 8]: 1.37E+07 x10^8 p/cm2/s
kidney Average FI [2, 9]: 3.76E+07 x10^8 p/cm2/s
liver Average FI [2, 9]: 4.34E+07 x10^8 p/cm2/s
tumor Average FI [2, 9]: 2.76E+07 x10^8 p/cm2/s
kidney Average FI [2, 10]: 3.14E+07 x10^8 p/cm2/s
liver Average FI [2, 10]: 3.92E+07 x10^8 p/cm2/s
tumor Average FI [2, 10]: 2.99E+07 x10^8 p/cm2/s
kidney Average FI [2, 11]: 3.06E+07 x10^8 p/cm2/s
liver Average FI [2, 11]: 3.19E+07 x10^8 p/cm2/s
tumor Average FI [2, 11]: 3.48E+07 x10^8 p/cm2/s
kidney Average FI [2, 12]: 5.61E+07 x10^8 p/cm2/s
liver Average FI [2, 12]: 6.33E+07 x10^8 p/cm2/s
tumor Average FI [2, 12]: 4.80E+07 x10^8 p/cm2/s
kidney Average FI [2, 13]: 4.60E+07 x10^8 p/cm2/s
liver Average FI [2, 13]: 5.75E+07 x10^8 p/cm2/s
tumor Average FI [2, 13]: 3.97E+07 x10^8 p/cm2/s
kidney Average FI [2, 14]: 4.92E+07 x10^8 p/cm2/s
liver Average FI [2, 14]: 4.67E+07 x10^8 p/cm2/s
tumor Average FI [2, 14]: 3.88E+07 x10^8 p/cm2/s
kidney Average FI [2, 15]: 7.41E+07 x10^8 p/cm2/s
liver Average FI [2, 15]: 9.04E+07 x10^8 p/cm2/s
tumor Average FI [2, 15]: 9.54E+07 x10^8 p/cm2/s
kidney Average FI [2, 16]: 6.02E+07 x10^8 p/cm2/s
liver Average FI [2, 16]: 7.81E+07 x10^8 p/cm2/s
tumor Average FI [2, 16]: 8.23E+07 x10^8 p/cm2/s
kidney Average FI [2, 17]: 6.88E+07 x10^8 p/cm2/s
liver Average FI [2, 17]: 6.42E+07 x10^8 p/cm2/s
tumor Average FI [2, 17]: 9.16E+07 x10^8 p/cm2/s
kidney Average FI [2, 18]: 8.52E+07 x10^8 p/cm2/s
liver Average FI [2, 18]: 1.07E+08 x10^8 p/cm2/s
tumor Average FI [2, 18]: 2.09E+08 x10^8 p/cm2/s
kidney Average FI [2, 19]: 6.80E+07 x10^8 p/cm2/s
liver Average FI [2, 19]: 9.09E+07 x10^8 p/cm2/s
tumor Average FI [2, 19]: 1.62E+08 x10^8 p/cm2/s
kidney Average FI [2, 20]: 7.55E+07 x10^8 p/cm2/s
liver Average FI [2, 20]: 8.19E+07 x10^8 p/cm2/s
tumor Average FI [2, 20]: 1.71E+08 x10^8 p/cm2/s
cellular uptake (CLSM) at pH 6.5 (EJ cells [3]; pH 6.5): obvious fluorescence signal was observed in the cytoplasm
cellular uptake (CLSM) at pH 7.4 (EJ cells [3]; pH 7.4): barely detected
intracellular ROS (DCFH-DA) (EJ cells [4]): Apparent green fluorescence
iron levels of tumor tissues versus other groups (EJ tumor tissues): substantially higher
